Measurements taken from publication PMC4139204, “Insight into the Architecture of the NuRD Complex” (The Journal of Biological Chemistry, 2014).

B1: full-length MTA1: in vitro translated full-length MTA1; human MTA1 Uniprot Q13330 (protein, UniProt Q13330 1-715, looked up)
chain: MAANMYRVGDYVYFENSSSNPYLIRRIEELNKTANGNVEAKVVCFYRRRDISSTLIALADKHATLSVCYKAGPGADNGEEGEIEEEMENPEMVDLPEKLKHQLRHRELFLSRQLESLPATHIRGKCSVTLLNETESLKSYLEREDFFFYSLVYDPQQKTLLADKGEIRVGNRYQADITDLLKEGEEDGRDQSRLETQVWEAHNPLTDKQIDQFLVVARSVGTFARALDCSSSVRQPSLHMSAAAASRDITLFHAMDTLHKNIYDISKAISALVPQGGPVLCRDEMEEWSASEANLFEEALEKYGKDFTDIQQDFLPWKSLTSIIEYYYMWKTTDRYVQQKRLKAAEAESKLKQVYIPNYNKPNPNQISVNNVKAGVVNGTGAPGQSPGAGRACESCYTTQSYQWYSWGPPNMQCRLCASCWTYWKKYGGLKMPTRLDGERPGPNRSNMSPHGLPARSSGSPKFAMKTRQAFYLHTTKLTRIARRLCREILRPWHAARHPYLPINSAAIKAECTARLPEASQSPLVLKQAVRKPLEAVLRYLETHPRPPKPDPVKSVSSVLSSLTPAKVAPVINNGSPTILGKRSYEQHNGVDGNMKKRLLMPSRGLANHGQARHMGPSRNLLLNGKSYPTKVRLIRGGSLPPVKRRRMNWIDAPDDVFYMATEETRKIRKLLSSSETKRAARRPYKPIALRQSQALPPRPPPPAPVNDEPIVIED
modifications: full-length
notes: in vitro translated full-length MTA1; human MTA1 Uniprot Q13330
B2: MTA-like: known subunit of the D. melanogaster NuRD complex (protein)
chain: MATNMYRVGDYVYVETTPNSPYLIRRIEELNKNQTGNVEAKVMCFYRRRDLPNPLVQLADKHQLATAEDSPLATKLKKTWLRTPVSEEQAAQAVLDPSIAALDEERTSPTQTSGGGGSATGNSGSNSSGTSNNNSSSTAIGGGAGGSGGAGGDAEKGEALTSKQRYQIKHRELFLSRQVESIPATQIRGKCSVTLLNETESLQSYLNKDDTFFYCLVFDPNQKTLLADKGEIRVGSRYQCDIPAKLKDTATDDRKLEELESLVWTPEHSLTDRKIDQFLVVSRSIGTFARALDCSSSVKQPSLHMSAAAASRDITLFHAMNILHKHEYSIEESMSSLVPSTGPVLCRDEIEDWSASEANLFEEALEKYGKDFNDIRQDFLPWKTLKQIIEYYYMWKTTDRYVQQKRVKAVEAELKLKQVYIPQYNNNGKGNGTSTKAGGGIYNGTTNGSTDLSSNGKPCESCGTTKSSQWNSVSSGHSTSRLCLSCWEYWRRYGSMKSATKGDAGEGDAKKKSSSAASTPTATLAGLATTPTAVVDLNDDEKISDLTNRQLHRCSIVNCGKEFKLKTHLARHYAQAHGIAISSGSPRPIMKTRTAFYLHTNPMTRVARAICRSIVKPKKAARQSAYAINAMLVKQEFTNRISGKSQAEIKKLLLLKPKDRGSVTKIANRLGAPGSGPHEWLVLTPKDKMPLPAVVSFPKPPKAPDGSLVYDRVPNKSPDVVAVPADKELTIIPTQATSTIRKRAHEDQQLNGTEVTIVPSGPPAKRPNKDPMPSHCPSPEQFAAMMAASGQPLSRHHLNGKQKIAQMARGGNGRKQVISWMDAPDDVYFRANDTHKKTRKILSAVDLRRAARKPWRTLPIKPAAPEPSSRPIESQIVILD
B3: Rpd3: known subunit of the D. melanogaster NuRD complex, Rpd3 (dHDAC) (protein)
chain: MQSHSKKRVCYYYDSDIGNYYYGQGHPMKPHRIRMTHNLLLNYGLYRKMEIYRPHKATADEMTKFHSDEYVRFLRSIRPDNMSEYNKQMQRFNVGEDCPVFDGLYEFCQLSAGGSVAAAVKLNKQASEICINWGGGLHHAKKSEASGFCYVNDIVLGILELLKYHQRVLYIDIDVHHGDGVEEAFYTTDRVMTVSFHKYGEYFPGTGDLRDIGAGKGKYYAVNIPLRDGMDDDAYESIFVPIISKVMETFQPAAVVLQCGADSLTGDRLGCFNLTVKGHGKCVEFVKKYNLPFLMVGGGGYTIRNVSRCWTYETSVALAVEIANELPYNDYFEYFGPDFKLHISPSNMTNQNTSEYLEKIKNRLFENLRMLPHAPGVQIQAIPEDAINDESDDEDKVDKDDRLPQSDKDKRIVPENEYSDSEDEGEGGRRDNRSYKGQRKRPRLDKDTNSNKASSETSSEIKDEKEKGDGADGEESTASNTNSNNNSNNKSDNDAGATANAGSGSGSGSGAGAKGAKENNI

Legend:
[1] = test system: RbAp48 binding to GST-H4-(1–48); assay: Competition pulldown: GST-H4-(1–48) pulls down RbAp48 in absence and presence of full-length MTA1; parameters: species or system human; conditions: GST-H4-(1–48) on glutathione beads, in vitro translated 35S-labeled RbAp48, absence and presence of full-length MTA1
Experimental: The structural data provide clear evidence that histone H4 and MTA1 bind mutually exclusively to RbAp48. […] Competition-binding experiments were performed to assess whether full-length MTA1 might inhibit the interaction of RbAp48 with H3 or FOG1 peptides and to confirm that H4 and MTA1 bind mutually exclusively to RbAp48. GST-H4-(1–48) was expressed in bacteria, immobilized onto glutathione beads, and used to pull down RbAp48 in the absence and presence of full-length MTA1 (Fig. 7A). In a complementary experiment (Fig. 7B), in vitro translated FLAG-RbAp48 was immobilized on anti-FLAG beads and used to pull down MTA1 in the absence and presence of histone H4-(1–48).
FIGURE 7. […] A, pulldown showing the binding of in vitro translated ^35S-labeled RbAp48 to GST-histone H4-(1–48) (immobilized on glutathione beads) in the absence and presence of in vitro translated MTA1. B, pulldown showing the binding of in vitro translated ^35S-labeled MTA1 to FLAG-RbAp48 (immobilized on anti-FLAG beads) in the absence and presence of histone H4-(1–48). C, pulldown assays showing the effect of adding increasing amounts of FOG1-(1–15) peptide to a complex formed between in vitro translated ^35S-labeled FLAG-RbAp48 (immobilized on anti-FLAG beads) and in vitro translated ^35S-labeled full-length MTA1 or MTA1-(530–715). […]

Nurf55 WT [2] = assay: Protein A affinity purification with wild-type Nurf55 bait, mass spectrometry; type: cell-based, D. melanogaster (Dmel-2 cells); conditions: for Number of peptides identified, Nurf55 WT: IgG beads, Dmel-2 cells; for interaction with Nurf55: wild-type Nurf55
Description: (§1) Full-length Nurf55 (also known as p55 and CAF1) is the D. melanogaster homolog of RbAp46/p48. It was PCR-amplified and cloned into the pDONR221 vector via the BP (recombination and insertion of the att B sequence into the att P recombination site) reaction using standard Gateway Technology (Invitrogen) protocols. Five residues in this plasmid were mutated (L35Y, E361Q, D362N, E364Q, D365N) to create pDONR-Nurf55mut using the QuikChange Lightning Site-directed Mutagenesis kit (Agilent Technologies). The resulting wild-type and mutant clones were verified by sequencing. Primer sequences for the constructs are available on request. The Nurf55 genes were then transferred into destination vectors for the inducible expression of protein A- or GFP-tagged fusion proteins by the LR (insertion of sequences containing att L sites into destination att R sites) reaction according to the manufacturer's instructions.
(§2) D. melanogaster Dmel-2 cell lines stably expressing either tagged wild-type or mutant Nurf55 (containing the L35Y, E361Q, D362N, E364Q, and D365N mutations) were established. Affinity purification of protein A- and GFP-tagged bait and interacting proteins followed by mass spectrometry identification was carried out as previously reported ([39][–][41]).
(§3) Cell lines stably expressing protein A-tagged fusion proteins of either wild-type Nurf55 or the mutant (Nurf55mut) were generated. RbAp46 shares >90 and 85% sequence identity with RbAp48 and NuRF55, respectively. […] Cellular proteins that interact with protein A-tagged Nurf55/Nurf55mut were then isolated by affinity purification on IgG beads and identified by mass spectrometry as described previously ([39], [40]).

Nurf55 MUT [3] = assay: Protein A affinity purification with mutant Nurf55 bait, mass spectrometry; type: cell-based, D. melanogaster (Dmel-2 cells); conditions: for Number of peptides identified, Nurf55 MUT: IgG beads, Dmel-2 cells, mutant E361Q, D362N, E364Q, D365N, L35Y
Description: as §1, §2, §3

Nurf55 WT [4] = assay: GFP affinity purification with wild-type Nurf55 bait, mass spectrometry; type: cell-based, D. melanogaster (Dmel-2 cells); conditions: anti-GFP nanobody beads, Dmel-2 cells, triplicate, lowest number of unique peptides listed
Description: as §1, §2

Nurf55 MUT [5] = assay: GFP affinity purification with mutant Nurf55 bait, mass spectrometry; type: cell-based, D. melanogaster (Dmel-2 cells); conditions: anti-GFP nanobody beads, Dmel-2 cells, triplicate, lowest number of unique peptides listed, mutant E361Q, D362N, E364Q, D365N, L35Y
Description: as §1, §2

Molecule | competition of MTA1 with histone H4 for RbAp48 [1] | Number of peptides identified, Nurf55 WT (Nurf55 WT [2]) | interaction with Nurf55 (Nurf55 WT [2]) | Number of peptides identified, Nurf55 MUT (Nurf55 MUT [3]) | interaction with Nurf55mut (Nurf55 MUT [3]) | Number of peptides identified, Nurf55 WT (Nurf55 WT [4]) | Number of peptides identified, Nurf55 MUT (Nurf55 MUT [5])
B1 | compete for the same binding surface on RbAp48 | – | – | – | – | – | –
B2 | – | 57 | pulled down by Nurf55 | 0 | not observed | 79 | 6
B3 | – | 8 | pulled down by Nurf55 | 0 | not observed | 36 | 9
